Patent US20060063208A1

Target: BMP-2 (human) (UniProt P12643)
Experiment: cell-based or functional assay

BMP-2 (human), sequence (P12643 283-396 limits assumed): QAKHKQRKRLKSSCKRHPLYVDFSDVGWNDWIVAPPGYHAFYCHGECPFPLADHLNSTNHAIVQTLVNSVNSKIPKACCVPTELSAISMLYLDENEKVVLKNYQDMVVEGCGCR

BMP-dependent signaling, Msx2-Luc reporter in 10T1/2 and HepG2 cells: 8 fold
luciferase activity of the BRE-luc reporter in LLC-PK1 cells: 14 fold
Substance: DRAGON (DRG11-Responsive Axonal Guidance and Outgrowth of Neurite), recombinant, expressed in transfected cells (from UniProt Q7TQ33 49-415) (receptor)
